In US6867193B1, “Amino acid-containing albumin preparation” (Nipro Corporation, priority 1999, dated 2005):

System: hepatic encephalopathy model animal
Experiment: hepatic encephalopathy model rat (partial hepatectomy + ammonium acetate): coma period and plasma ammonia (Test Examples 1-3)
Type: in vivo
Conditions: for coma period / concentration of ammonia in the blood: mean ± standard error
Experimental: A test drug was prepared by dissolving rat serum albumin (RSA, manufactured by Sigma Corp.) in an amino acid solution (components are disclosed in Table 3) to form a 0.1 w/v % or 1.0 w/v % solution, adding 1.0 N hydrochloric acid thereto to adjust the pH to 6.6 to 7.4 according to Preparation Example 3, filling the solution into a 500 ml infusion bottle and heating at 60° C. for 10 hours after sealing the bottle with a rubber plug. In comparison, physiological saline or the amino acid solution (pH 6.6 to 7.4), respectively, was used in the same way.
Rat partial hepatectomy was carried out by performing a laparotomy of a male SD rat (body weight of 200 to 230 g) under etherization, removing a lateral left lobe, a medial left lobe and a medial right lobe (67%) and closing the abdomen (Archs. Pathol., 1985; 12: 186-202).
A hepatic encephalopathy model animal was created by administering 2 M ammonium acetate solution at a rate of 3 ml/kg into the rat abdomen after 48 hours from the partial hepatectomy (“Kiso to Rinsho”, 1987; 21: 2509-2527).
The test drug was injected from the rat tail vein (10 ml/kg) 2 minutes before administering the ammonium solution. Subsequently, the coma period (minutes) was measured, blood was collected from the rat tail vein 30 minutes after administration of the ammonium solution, and the ammonia concentration in the blood plasma was determined by using an ammonia measuring reagent kit (brand name: Determiner NH3, manufactured by Kyowa Medics Corporation).
A test drug was prepared by dissolving human serum albumin (HSA, manufactured by Sigma Corp.) in the amino acid solution (components are disclosed in Table 3) in the same manner as in Preparation Example 3 to form a desired concentration of the solution (0.001, 0.01, 0.1 or 1.0 w/v %). 6 to 14 male SD rats (body weight 200 to 230 g) as test animals were used per one group, and creation of a hepatic encephalopathy model animal and a test method were carried out in the same manner as Test Example 1. The test drug was injected in an amount of 10 ml/kg from the tail vein.
A test drug was prepared by dissolving bovine serum albumin (BSA, manufactured by Sigma Corp.) in the amino acid solution (components bare disclosed in Table 3) in the same manner as in Preparation Example 3 to form a desired concentration of the solution (0.1 w/v % or 1.0 w/v %). Creation of a hepatic encephalopathy model animal and a test method were carried out in the same manner as Test Example 1.

1.0% BSA: bovine serum albumin (BSA, manufactured by Sigma Corp.), 1.0%, given alone
coma period (Test Example 3 (BSA)): 23 ± 3 min
concentration of ammonia in the blood (Test Example 3 (BSA)): 119 ± 10 µmol/dL

B1: 1.0% RSA: rat serum albumin (RSA, manufactured by Sigma Corp.), 1.0% final concentration, given alone (protein, UniProt P02770 25-608, looked up)
Albumin: EAHKSEIAHRFKDLGEQHFKGLVLIAFSQYLQKCPYEEHIKLVQEVTDFAKTCVADENAENCDKSIHTLFGDKLCAIPKLRDNYGELADCCAKQEPERNECFLQHKDDNPNLPPFQRPEAEAMCTSFQENPTSFLGHYLHEVARRHPYFYAPELLYYAEKYNEVLTQCCTESDKAACLTPKLDAVKEKALVAAVRQRMKCSSMQRFGERAFKAWAVARMSQRFPNAEFAEITKLATDVTKINKECCHGDLLECADDRAELAKYMCENQATISSKLQACCDKPVLQKSQCLAEIEHDNIPADLPSIAADFVEDKEVCKNYAEAKDVFLGTFLYEYSRRHPDYSVSLLLRLAKKYEATLEKCCAEGDPPACYGTVLAEFQPLVEEPKNLVKTNCELYEKLGEYGFQNAVLVRYTQKAPQVSTPTLVEAARNLGRVGTKCCTLPEAQRLPCVEDYLSAILNRLCVLHEKTPVSEKVTKCCSGSLVERRPCFSALTVDETYVPKEFKAETFTFHSDICTLPDKEKQIKKQTALAELVKHKPKATEDQLKTVMGDFAQFVDKCCKAADKDNCFATEGPNLVARSKEALA
effect on the hepatic encephalopathy (Test Example 1, text on Table 4): no effect
concentration of ammonia in the blood (Test Example 1, blood plasma 30 min after ammonium solution, test drug 10 ml/kg tail vein): 129 ± 13 µmol/dL
coma period (Test Example 1, male SD rat, test drug 10 ml/kg tail vein 2 min before ammonium acetate): 31 ± 5 min
